Paper PMC6934829, “Multi-Factor Regulation of the Master Modulator LeuO for the Cyclic-(Phe-Pro) Signaling Pathway in Vibrio vulnificus” (Scientific Reports, 2019)

What was measured:
[1] = molecular target: T1, ToxR-C (C-terminal periplasmic domain of ToxR) (Vibrio vulnificus, UniProt Q9RP86); experiment: isothermal titration calorimetry; assay type: binding
T1 construct: C-terminal His-tag (pET21a), expressed in E. coli BL21(DE3)

[2] = molecular target: C-terminal periplasmic domain of ToxR (ToxR-C) (Vibrio vulnificus); experiment: ITC; 0.2 mM ToxR-C in the cell, 10 mM cFP or linear FP in the syringe, 2 ul injections at 2 min intervals, 25 °C, 20 mM Na2HPO4 pH 7.8, 1 mM EDTA; simple binding model

Row | Compound | Kd [1] [µM] | Kd [2] [µM] | stoichiometry N [2]
1 | O=C1N[C@@H](Cc2ccccc2)C(=O)N2CCC[C@@H]12 [cFP] | 42 | – | –
2 | cyclic-L-phenylalanine-L-proline (cFP) (peptide) | – | 42 | 1
